Experimental data from article PMC4302019.

Molecular target: SibV (predicted extradiol dioxygenase of sibiromycin biosynthesis), holo form reconstituted with Fe2+ (Streptosporangium sibiricum)
Experiment: SEC

stoichiometry N: 2
Substance: SibV (predicted extradiol dioxygenase of sibiromycin biosynthesis), holo form reconstituted with Fe2+ (enzyme)
